# Biological target: the molecule itself
# Experiment: cryo-EM structure; single-particle analysis of KR2 rhodopsin in 50 mM Tris-HCl pH 8.0, 0.1 M NaCl, 0.03% DDM; grids made with EasyGrid at 4 °C; non-symmetrised ab initio model, then refinement with imposed C5 symmetry
protein,measurement,value
"KR2 rhodopsin (NaR gene from Krokinobacter eikastus) (natural protein, KR2 rhodopsin, NaR gene from Krokinobacter eikastus, codon-optimised for E. coli; also called KR2 bacterial rhodopsin; source: E. coli C41, pET15b, purified in DDM (Ni-NTA, Superdex 200 Increase)) MTQELGNANFENFIGATEGFSEIAYQFTSHILTLGYAVMLAGLLYFILTIKNVDKKFQMSNILSAVVMVSAFLLLYAQAQNWTSSFTFNEEVGRYFLDPSGDLFNNGYRYLNWLIDVPMLLFQILFVVSLTTSKFSSVRNQFWFSGAMMIITGYIGQFYEVSNLTAFLVWGAISSAFFFHILWVMKKVINEGKEGISPAGQKILSNIWILFLISWTLYPGAYLMPYLTGVDGFLYSEDGVMARQLVYTIADVSSKVIYGVLLGNLAITLSKNKELVEANS",stoichiometry N,5

# — paper PMC13345917, “EasyGrid: a versatile platform for automated cryo-EM sample preparation and quality control” (Nature Methods, 2026)
